According to article PMC12412624, “Engineered Cas12j‐8 is a Versatile Platform for Multiplexed Genome Modulation in Mammalian Cells”:

T1: Cas12j-8 WT (bacteriophage (metagenome))
T1 chain: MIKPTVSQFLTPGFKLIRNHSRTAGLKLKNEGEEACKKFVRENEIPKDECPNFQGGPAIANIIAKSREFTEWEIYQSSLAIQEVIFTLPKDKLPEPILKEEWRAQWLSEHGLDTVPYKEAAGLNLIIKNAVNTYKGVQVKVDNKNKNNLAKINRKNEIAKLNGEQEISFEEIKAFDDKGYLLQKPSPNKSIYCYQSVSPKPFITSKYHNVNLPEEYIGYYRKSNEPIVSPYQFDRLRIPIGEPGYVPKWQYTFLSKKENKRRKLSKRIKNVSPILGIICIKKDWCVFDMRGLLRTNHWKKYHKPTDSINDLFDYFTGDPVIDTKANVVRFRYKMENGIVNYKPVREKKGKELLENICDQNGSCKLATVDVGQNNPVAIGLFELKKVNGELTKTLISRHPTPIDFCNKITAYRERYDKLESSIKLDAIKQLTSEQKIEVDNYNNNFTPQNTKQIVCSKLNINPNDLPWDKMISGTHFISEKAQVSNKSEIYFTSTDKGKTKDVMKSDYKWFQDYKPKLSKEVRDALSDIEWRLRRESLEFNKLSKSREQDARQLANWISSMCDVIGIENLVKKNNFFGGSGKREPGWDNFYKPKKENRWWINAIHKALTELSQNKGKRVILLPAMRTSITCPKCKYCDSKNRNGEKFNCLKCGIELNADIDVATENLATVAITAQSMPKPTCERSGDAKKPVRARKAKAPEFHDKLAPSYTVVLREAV

T2: Cas12j-8 E258R+D313R+D495R+D527R+E547R (bacteriophage (metagenome), E258R;D313R;D495R;D527R;E547R)
T2 chain: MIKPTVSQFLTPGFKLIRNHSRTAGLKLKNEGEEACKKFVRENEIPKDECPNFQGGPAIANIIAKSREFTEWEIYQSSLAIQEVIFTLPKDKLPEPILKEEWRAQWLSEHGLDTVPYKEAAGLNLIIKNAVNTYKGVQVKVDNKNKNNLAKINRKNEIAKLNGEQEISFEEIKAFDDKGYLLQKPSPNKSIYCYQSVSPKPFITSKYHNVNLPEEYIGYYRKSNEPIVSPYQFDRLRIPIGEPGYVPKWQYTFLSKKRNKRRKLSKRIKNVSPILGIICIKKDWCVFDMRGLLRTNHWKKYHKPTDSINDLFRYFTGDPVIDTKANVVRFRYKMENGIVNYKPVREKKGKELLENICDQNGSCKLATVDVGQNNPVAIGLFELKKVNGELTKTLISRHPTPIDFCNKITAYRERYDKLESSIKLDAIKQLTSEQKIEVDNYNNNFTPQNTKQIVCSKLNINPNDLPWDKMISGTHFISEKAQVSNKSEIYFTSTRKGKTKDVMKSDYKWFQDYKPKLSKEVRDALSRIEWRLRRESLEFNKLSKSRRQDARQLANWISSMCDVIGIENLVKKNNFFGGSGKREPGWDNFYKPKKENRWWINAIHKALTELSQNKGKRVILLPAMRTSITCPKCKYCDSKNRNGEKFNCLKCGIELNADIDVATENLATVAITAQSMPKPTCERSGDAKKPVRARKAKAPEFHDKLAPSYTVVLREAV


Experiments:
Cas12j-8 WT = target: T1, Cas12j-8 WT; assay: HEK293T cells; conditions: tags: NLS
[1] = target: T2, Cas12j-8 E258R+D313R+D495R+D527R+E547R; assay: HEK293T cells; conditions: tags: NLS

Binder	indel frequency (Cas12j-8 WT)	indel frequency [1]
vegfasite3 (mixed) RNA: CUUUCAAGACUAAUAGAUUGCUCCUUACGAGGAGACUGCUGUCUUGGGUGCAUUGG DNA 1: TTCTGCTGTCTTGGGTGCATTGG DNA 2: CCAATGCACCCAAGACAGCAGAA	44.7 % indels	77.4 % indels
sod1site5 (mixed) RNA: CUUUCAAGACUAAUAGAUUGCUCCUUACGAGGAGACAUUAUUAGGCAUGUUGGAGA DNA 1: TTCATTATTAGGCATGTTGGAGA DNA 2: TCTCCAACATGCCTAATAATGAA	16.5 % indels	59.7 % indels
cishsite3 (mixed) RNA: CUUUCAAGACUAAUAGAUUGCUCCUUACGAGGAGACACUGACAGCGUGAACAGGUA DNA 1: TTCACTGACAGCGTGAACAGGTA DNA 2: TACCTGTTCACGCTGTCAGTGAA	2.97 % indels	43.1 % indels
tigitsite4 (mixed) RNA: CUUUCAAGACUAAUAGAUUGCUCCUUACGAGGAGACUAGGACCUCCAGGAAGAUUC DNA 1: TTCTAGGACCTCCAGGAAGATTC DNA 2: GAATCTTCCTGGAGGTCCTAGAA		28.3 % indels
ccr5site9 (mixed) RNA: CUUUCAAGACUAAUAGAUUGCUCCUUACGAGGAGACAGAUCUGGUAAAGAUGAUUC DNA 1: TTGAGATCTGGTAAAGATGATTC DNA 2: GAATCATCTTTACCAGATCTCAA	45.4 % indels	72.7 % indels
cd274site6 (mixed) RNA: CUUUCAAGACUAAUAGAUUGCUCCUUACGAGGAGACGUUGUGGAUCCAGUCACCUC DNA 1: TTGGTTGTGGATCCAGTCACCTC DNA 2: GAGGTGACTGGATCCACAACCAA	21 % indels	59.2 % indels
cd274site9 (mixed) RNA: CUUUCAAGACUAAUAGAUUGCUCCUUACGAGGAGACCUCAGGAUCUAAUCUCCUAA DNA 1: TTCCTCAGGATCTAATCTCCTAA DNA 2: TTAGGAGATTAGATCCTGAGGAA	9.46 % indels	34.3 % indels
alas1site9 (mixed) RNA: CUUUCAAGACUAAUAGAUUGCUCCUUACGAGGAGACGCAUGACUCCAUCCCGAUCC DNA 1: TTGGCATGACTCCATCCCGATCC DNA 2: GGATCGGGATGGAGTCATGCCAA	20 % indels	44 % indels
apobsite9 (mixed) RNA: CUUUCAAGACUAAUAGAUUGCUCCUUACGAGGAGACCAAGCAGAAGCCAGAAGUGA DNA 1: TTGCAAGCAGAAGCCAGAAGTGA DNA 2: TCACTTCTGGCTTCTGCTTGCAA	1.17 % indels	15.6 % indels
cishsite2 (mixed) RNA: CUUUCAAGACUAAUAGAUUGCUCCUUACGAGGAGACGCUCACUCUCUGUCUGGGCU DNA 1: TTGGCTCACTCTCTGTCTGGGCT DNA 2: AGCCCAGACAGAGAGTGAGCCAA		16.3 % indels
apobsite4 (mixed) RNA: CUUUCAAGACUAAUAGAUUGCUCCUUACGAGGAGACGUGGCAAAUCCUCCAGAGAU DNA 1: TTGGTGGCAAATCCTCCAGAGAT DNA 2: ATCTCTGGAGGATTTGCCACCAA	11.9 % indels	27.8 % indels
apobsite10 (mixed) RNA: CUUUCAAGACUAAUAGAUUGCUCCUUACGAGGAGACGCAGGCGACCAGUGGGCGAG DNA 1: TTGGCAGGCGACCAGTGGGCGAG DNA 2: CTCGCCCACTGGTCGCCTGCCAA	8.3 % indels	22.1 % indels
alas1site3 (mixed) RNA: CUUUCAAGACUAAUAGAUUGCUCCUUACGAGGAGACGUGAUGAGGGAGUCUGAAUA DNA 1: TTGGTGATGAGGGAGTCTGAATA DNA 2: TATTCAGACTCCCTCATCACCAA	10.1 % indels	34.2 % indels
angptl3site12 (mixed) RNA: CUUUCAAGACUAAUAGAUUGCUCCUUACGAGGAGACCAGUCUUCCAACUCAAUUCG DNA 1: TTCCAGTCTTCCAACTCAATTCG DNA 2: CGAATTGAGTTGGAAGACTGGAA		22.2 % indels
ccr5site5 (mixed) RNA: CUUUCAAGACUAAUAGAUUGCUCCUUACGAGGAGACGAAAUACAAUGUGUCAACUC DNA 1: TTGGAAATACAATGTGTCAACTC DNA 2: GAGTTGACACATTGTATTTCCAA	12.1 % indels	54 % indels
ccr5site4 (mixed) RNA: CUUUCAAGACUAAUAGAUUGCUCCUUACGAGGAGACCUUCUUACUGUCCCCUUCUG DNA 1: TTCCTTCTTACTGTCCCCTTCTG DNA 2: CAGAAGGGGACAGTAAGAAGGAA	28.2 % indels	68.7 % indels
cxcr4site5 (mixed) RNA: CUUUCAAGACUAAUAGAUUGCUCCUUACGAGGAGACGGAACUUCCUAUGCAAGGCA DNA 1: TTGGGAACTTCCTATGCAAGGCA DNA 2: TGCCTTGCATAGGAAGTTCCCAA	35.6 % indels	61.4 % indels
cxcr4site8 (mixed) RNA: CUUUCAAGACUAAUAGAUUGCUCCUUACGAGGAGACAGCACAUCAUGGUUGGCCUU DNA 1: TTCAGCACATCATGGTTGGCCTT DNA 2: AAGGCCAACCATGATGTGCTGAA	10.9 % indels	36.5 % indels
pcsk9site5 (mixed) RNA: CUUUCAAGACUAAUAGAUUGCUCCUUACGAGGAGACUGUCACAGAGUGGGACAUCA DNA 1: TTGTGTCACAGAGTGGGACATCA DNA 2: TGATGTCCCACTCTGTGACACAA	25.8 % indels	61.2 % indels
tgfbr2site8 (mixed) RNA: CUUUCAAGACUAAUAGAUUGCUCCUUACGAGGAGACCCAGGUUGAACUCAGCUUCU DNA 1: TTCCCAGGTTGAACTCAGCTTCT DNA 2: AGAAGCTGAGTTCAACCTGGGAA	14.8 % indels	51.6 % indels
tcfsite3 (mixed) RNA: CUUUCAAGACUAAUAGAUUGCUCCUUACGAGGAGACCUAAACCAAGUCCCAGACAU DNA 1: TTCCTAAACCAAGTCCCAGACAT DNA 2: ATGTCTGGGACTTGGTTTAGGAA	3.82 % indels	
ccr5site10 (mixed) RNA: CUUUCAAGACUAAUAGAUUGCUCCUUACGAGGAGACCAUACAGUCAGUAUCAAUUC DNA 1: TTCCATACAGTCAGTATCAATTC DNA 2: GAATTGATACTGACTGTATGGAA	4.92 % indels	
vegfasite4 (mixed) RNA: CUUUCAAGACUAAUAGAUUGCUCCUUACGAGGAGACUUGUGCUGUAGGAAGCUCAU DNA 1: TTGTTGTGCTGTAGGAAGCTCAT DNA 2: ATGAGCTTCCTACAGCACAACAA	5.55 % indels	
tcfsite8 (mixed) RNA: CUUUCAAGACUAAUAGAUUGCUCCUUACGAGGAGACCAGGCUCUGACUCAGGGAAG DNA 1: TTGCAGGCTCTGACTCAGGGAAG DNA 2: CTTCCCTGAGTCAGAGCCTGCAA	2.92 % indels	
